Measured values reported in US20170204172A1 (IMMUNDIAGNOSTIK, published 2017).
Values belong to the binder of their own block, whether it stands above or below them.

Columns and labels:
[1] = biological target: T1, human bone sialoprotein (BSP) in plasma (human, UniProt P21815 17-317, phosphorylated serine at positions 31, 67, 74, 75, 94, 100, 149, 280; sulphated tyrosine; multiple complex glycosylation (as described for human BSP)); assay: titration and competition experiments
T1 construct: Native BSP as present in human plasma; also called human BSP; hBSP
T1 sequence (looked up): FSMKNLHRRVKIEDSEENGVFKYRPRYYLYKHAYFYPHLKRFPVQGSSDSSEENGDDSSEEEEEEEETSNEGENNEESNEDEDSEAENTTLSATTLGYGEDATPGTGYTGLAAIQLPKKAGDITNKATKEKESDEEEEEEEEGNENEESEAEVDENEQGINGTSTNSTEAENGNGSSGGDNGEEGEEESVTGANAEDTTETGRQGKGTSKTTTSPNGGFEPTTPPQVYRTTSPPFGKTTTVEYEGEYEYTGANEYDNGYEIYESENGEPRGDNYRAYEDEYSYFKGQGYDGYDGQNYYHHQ

[2] = biological target: T1, human bone sialoprotein (BSP) in plasma; assay: screening of a phagemid single chain antibody library with peptide antigen and human BSP in plasma
From the text: We screened differentially a synthetic human antibody library for an antibody reacting with synthetic peptide epitopes derived and common to rat or human BSP which we assumed being accessible in plasma. Moreover, we screened a proprietary synthetic human antibody library (mAB-Factory GmbH, Braunschweig, DE), prepared in accordance with DE 4122599 C2 and WO 93/01288 (PCT/EP92/01524), for phagemid-expressed single chain antibodies binding to BSP peptide epitopes with a soluble peptide antigen as indicated and with human BSP in plasma. A respective full human antibody (AF165R4.2-E2) specific for human BSP in plasma was obtained and reconstructed.

binding result [1]: binds
B1: chimeric version of the rat mAb anti-BSP_IDK1 (antibody, V domains shown)
VH: QVQLQESGAELVRPGSSVKISCKASGYTFTDFYMHWVKQGPEQGLVWIGRINPANGNTIYAEKFKTKATLTADKSSNTAYMQLSSLTSEDTATYFCSSAYWGQGTLVTVSS
VL: DILLTQTPPTSSATIGQSVSISCRSSQSLLDNDGNTYTLYWYLQRPTQSPQLLIYLVSKLRSGVPNRFSGSGSGTDFTLKISGVEAEDLGVYYCVQGTHDPWTFGGGTKLELKR
notes: The entries include a signal peptide that is marked only by underlining in a drawing; Kappa light chain; also called chimeric version of a rat mAB - IDK 1; human chimeric version of a monoclonal rat antibody

binding result [2]: binds
B2: anti-BSP_IDK2 human mAb (clone AF165R4.2-E2) (antibody, V domains shown)
VH: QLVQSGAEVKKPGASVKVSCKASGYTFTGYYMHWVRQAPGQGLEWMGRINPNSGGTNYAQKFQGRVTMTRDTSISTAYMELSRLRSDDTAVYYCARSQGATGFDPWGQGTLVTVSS
VL: QLVLTQSPSASGTPGQRVTISCSGSSSNIGSSYVYWYQQLPGAAPKLLIYRNSQRPPGVPDRFSSSKSGTSASLAISGLRSEDEADYYCATWDGSLSGWVFGGGTKLTVLG
notes: The entries include a signal peptide that is marked only by underlining in a drawing; Lambda light chain; also called fully human anti-hBSP antibody

binding result [1]: binds
B3: humanized antibody anti-BSP_IDK3 (clone AF177.3) (antibody, V domains shown)
VH: QVQLQQSGAEVVKPGASVKVSCKASGYTFTDFYMHWVKQAPEQGLEWMGIINPANGNTIYAEKFQGRVTMTADKSTNTVYMELSSLTSEDTATYYCSSAYWGQGTLVTVSS
VL: DIVMTQTPPSSSVTIGQPASISCKSSQSLLDNDGNTYLYWYLQKPGQSPQLLIYLVSKRRSGVPDRFSGSGSGTDFTLKISGVEAEDVGVYYCVQGTHDPWTFGGGTKVEIKR
notes: Kappa light chain; also called Humanized mAB of IDK 1
